Measurements published in patent US20250262210A1 (TRUSTEES OF COLUMBIA UNIVERSITY IN THE CITY OF NEW YORK, published 2025).

Experiments:
TTC27 = TTC27 (human, UniProt Q6P3X3 1-843); test: IP/MS, LZTR1 R810W-FLAG, U87
In short: (§1)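 Read-out: spectral counts from LC-MS/MS (Orbitrap Fusion) after MaxQuant identification. Variable modifications were Met oxidation, protein N-terminal acetylation and N/Q deamidation.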

ABR = target: T1, ABR (human, UniProt Q12979 1-859, limits assumed); test: IP/MS, LZTR1 R810W-FLAG, U87
T1 sequence (looked up): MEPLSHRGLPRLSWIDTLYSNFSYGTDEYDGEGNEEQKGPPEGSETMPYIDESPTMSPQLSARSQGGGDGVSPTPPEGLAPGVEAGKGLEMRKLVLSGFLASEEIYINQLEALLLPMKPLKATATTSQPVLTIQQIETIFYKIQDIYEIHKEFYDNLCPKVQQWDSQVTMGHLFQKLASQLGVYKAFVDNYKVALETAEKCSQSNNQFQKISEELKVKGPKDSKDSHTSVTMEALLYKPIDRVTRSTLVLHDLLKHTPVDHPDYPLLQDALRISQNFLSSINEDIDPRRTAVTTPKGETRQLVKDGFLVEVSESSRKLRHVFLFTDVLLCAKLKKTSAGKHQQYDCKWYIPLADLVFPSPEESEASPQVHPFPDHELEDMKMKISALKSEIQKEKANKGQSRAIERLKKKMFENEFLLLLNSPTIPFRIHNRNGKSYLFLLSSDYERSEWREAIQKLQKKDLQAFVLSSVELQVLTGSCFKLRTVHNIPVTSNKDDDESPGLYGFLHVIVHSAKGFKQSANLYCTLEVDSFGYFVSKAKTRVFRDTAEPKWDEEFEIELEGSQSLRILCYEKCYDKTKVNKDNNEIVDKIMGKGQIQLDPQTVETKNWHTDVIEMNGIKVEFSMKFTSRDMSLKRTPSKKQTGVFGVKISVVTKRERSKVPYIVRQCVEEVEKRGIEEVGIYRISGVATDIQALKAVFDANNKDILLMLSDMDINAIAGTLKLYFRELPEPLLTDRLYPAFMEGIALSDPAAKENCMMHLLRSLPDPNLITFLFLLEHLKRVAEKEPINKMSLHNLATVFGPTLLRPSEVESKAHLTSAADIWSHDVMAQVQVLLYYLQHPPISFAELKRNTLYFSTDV
In short: as §1

B1: LZTR1 R810W-FLAG (other, human, UniProt Q8N653 1-840, looked up)
chain: MAGPGSTGGQIGAAALAGGARSKVAPSVDFDHSCSDSVEYLTLNFGPFETVHRWRRLPPCDEFVGARRSKHTVVAYKDAIYVFGGDNGKTMLNDLLRFDVKDCSWCRAFTTGTPPAPRYHHSAVVYGSSMFVFGGYTGDIYSNSNLKNKNDLFEYKFATGQWTEWKIEGRLPVARSAHGATVYSDKLWIFAGYDGNARLNDMWTIGLQDRELTCWEEVAQSGEIPPSCCNFPVAVCRDKMFVFSGQSGAKITNNLFQFEFKDKTWTRIPTEHLLRGSPPPPQRRYGHTMVAFDRHLYVFGGAADNTLPNELHCYDVDFQTWEVVQPSSDSEVGGAEVPERACASEEVPTLTYEERVGFKKSRDVFGLDFGTTSAKQPTQPASELPSGRLFHAAAVISDAMYIFGGTVDNNIRSGEMYRFQFSCYPKCTLHEDYGRLWESRQFCDVEFVLGEKEECVQGHVAIVTARSRWLRRKITQARERLAQKLEQEAAPVPREAPGVAAGGARPPLLHVAIREAEARPFEVLMQFLYTDKIKYPRKGHVEDVLLIMDVYKLALSFQLCRLEQLCRQYIEASVDLQNVLVVCESAARLQLSQLKEHCLNFVVKESHFNQVIMMKEFERLSSPLIVEIVRRKQQPPPRTPLDQPVDIGTSLIQDMKAYLEGAGAEFCDITLLLDGHPRPAHKAILAARSSYFEAMFRSFMPEDGQVNISIGEMVPSRQAFESMLRYIYYGEVNMPPEDSLYLFAAPYYYGFYNNRLQAYCKQNLEMNVTVQNVLQILEAADKTQALDMKRHCLHIIVHQFTKVSKLPTLWSLSQQLLLDIIDSLASHISDKQCAELGADI
notes: Stably expressed in U87 cells by lentivirus; also called LZTR1-FLAG-R810W; LZTR1 RW; not shown: FLAG tag
- binding result (TTC27): binds
- binding result (ABR): binds
